Source: article PMC9482650, “Quantitative fragmentomics allow affinity mapping of interactomes” (Nature Communications, 2022)

Legend:
Test in all cases: holdup assay
Set-up in all cases: key: below the threshold = too weak to quantify, mostly under pKd 3.1 to 4
Settings in all cases: plain residues with an end cap or a label only (N-terminal biotin on a linker: ado-ado)
HTRA1, Q92743 = biological target: HTRA1, Q92743
RADIL, Q96JH8 = biological target: T1, RADIL, Q96JH8
T1 sequence (Q96JH8 971-1071, limits assumed, looked up): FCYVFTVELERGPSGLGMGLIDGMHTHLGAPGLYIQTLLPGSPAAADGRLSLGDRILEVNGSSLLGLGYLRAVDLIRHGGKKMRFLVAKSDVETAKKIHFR

IL16_1, Q14005 = biological target: IL16_1, Q14005
Chain of IL16_1, Q14005 (Q14005 210-306): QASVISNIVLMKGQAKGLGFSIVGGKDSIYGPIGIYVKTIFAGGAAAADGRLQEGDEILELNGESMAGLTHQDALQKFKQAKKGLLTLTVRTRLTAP

DLG1_2, Q12959 = biological target: DLG1_2, Q12959
Chain of DLG1_2, Q12959 (Q12959 314-412): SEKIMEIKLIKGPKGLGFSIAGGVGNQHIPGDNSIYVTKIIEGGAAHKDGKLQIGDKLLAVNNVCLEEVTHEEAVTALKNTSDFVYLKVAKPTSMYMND

GIPC2, Q8TF65 = biological target: GIPC2, Q8TF65
Chain of GIPC2, Q8TF65 (Q8TF65 112-203): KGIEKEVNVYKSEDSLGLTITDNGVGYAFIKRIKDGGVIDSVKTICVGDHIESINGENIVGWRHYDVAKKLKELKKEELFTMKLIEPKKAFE

LNX1_3, Q8TBB1 = biological target: LNX1_3, Q8TBB1
Chain of LNX1_3, Q8TBB1 (Q8TBB1 500-596): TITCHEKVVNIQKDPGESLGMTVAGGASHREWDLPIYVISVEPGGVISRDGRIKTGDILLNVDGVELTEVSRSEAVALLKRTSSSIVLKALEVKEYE

MAGI2_4, Q86UL8 = biological target: MAGI2_4, Q86UL8
Chain of MAGI2_4, Q86UL8 (Q86UL8 772-865): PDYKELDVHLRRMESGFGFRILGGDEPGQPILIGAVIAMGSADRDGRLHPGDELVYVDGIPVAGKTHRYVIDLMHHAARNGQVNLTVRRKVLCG

LAP2, Q96RT1 = biological target: LAP2, Q96RT1
Chain of LAP2, Q96RT1 (Q96RT1 other isoform, or with tags, fused parts or gaps): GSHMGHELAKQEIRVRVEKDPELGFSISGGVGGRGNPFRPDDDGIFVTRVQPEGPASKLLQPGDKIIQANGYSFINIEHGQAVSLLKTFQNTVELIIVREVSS

SHANK1, Q9Y566 = biological target: T2, SHANK1, Q9Y566
T2 sequence (Q9Y566 658-767, limits assumed, looked up): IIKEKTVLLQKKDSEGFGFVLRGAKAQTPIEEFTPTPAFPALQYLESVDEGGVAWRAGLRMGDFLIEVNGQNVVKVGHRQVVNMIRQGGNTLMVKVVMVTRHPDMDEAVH

GRASP, Q7Z6J2 = biological target: GRASP, Q7Z6J2
Chain of GRASP, Q7Z6J2 (Q7Z6J2 96-193): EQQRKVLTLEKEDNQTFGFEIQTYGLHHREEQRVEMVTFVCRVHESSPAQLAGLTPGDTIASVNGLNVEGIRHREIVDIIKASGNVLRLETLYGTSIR

PDLIM1, O00151 = biological target: PDLIM1, O00151
Chain of PDLIM1, O00151 (O00151 1-87): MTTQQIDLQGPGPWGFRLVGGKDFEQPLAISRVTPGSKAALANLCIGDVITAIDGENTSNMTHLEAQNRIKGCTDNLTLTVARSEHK

APBA2_2, Q99767 = biological target: T3, APBA2_2, Q99767
T3 sequence (Q99767 654-744, limits assumed, looked up): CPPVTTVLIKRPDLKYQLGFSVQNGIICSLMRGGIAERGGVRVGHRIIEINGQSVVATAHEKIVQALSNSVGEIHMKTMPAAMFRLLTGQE

Inadl_10, Q8NI35 = biological target: Inadl_10, Q8NI35
Chain of Inadl_10, Q8NI35 (Q8NI35 1673-1763): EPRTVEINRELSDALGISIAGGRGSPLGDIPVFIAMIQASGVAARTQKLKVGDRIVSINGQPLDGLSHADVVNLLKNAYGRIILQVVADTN

SNTB1, Q13884 = biological target: T4, SNTB1, Q13884
T4 sequence (Q13884 107-205, limits assumed, looked up): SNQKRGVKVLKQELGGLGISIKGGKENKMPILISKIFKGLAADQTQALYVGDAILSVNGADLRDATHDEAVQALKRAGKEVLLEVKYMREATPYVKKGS

IL16_4, Q14005 = biological target: IL16_4, Q14005
Chain of IL16_4, Q14005 (Q14005 1229-1329): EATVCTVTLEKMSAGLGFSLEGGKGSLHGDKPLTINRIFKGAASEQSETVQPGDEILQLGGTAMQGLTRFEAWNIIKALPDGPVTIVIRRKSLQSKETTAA

DLG4_2, P78352 = biological target: DLG4_2, P78352
Chain of DLG4_2, P78352 (P78352 155-259): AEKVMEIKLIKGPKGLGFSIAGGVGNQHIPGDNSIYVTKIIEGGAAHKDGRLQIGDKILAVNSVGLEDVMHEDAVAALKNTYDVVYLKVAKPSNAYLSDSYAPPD

GORASP2, Q9H8Y8 = biological target: GORASP2, Q9H8Y8
Inadl_1, Q8NI35 = biological target: Inadl_1, Q8NI35
Chain of Inadl_1, Q8NI35 (Q8NI35 113-229): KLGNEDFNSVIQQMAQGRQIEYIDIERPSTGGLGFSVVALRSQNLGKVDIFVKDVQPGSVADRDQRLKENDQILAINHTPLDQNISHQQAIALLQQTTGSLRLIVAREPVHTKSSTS

MAGI2_5, Q86UL8 = biological target: MAGI2_5, Q86UL8
Chain of MAGI2_5, Q86UL8 (Q86UL8 915-1017): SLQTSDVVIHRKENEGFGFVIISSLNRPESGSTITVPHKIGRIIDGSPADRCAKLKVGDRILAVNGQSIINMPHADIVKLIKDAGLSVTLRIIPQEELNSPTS

LNX1_2, Q8TBB1 = biological target: LNX1_2, Q8TBB1
Chain of LNX1_2, Q8TBB1 (Q8TBB1 371-470): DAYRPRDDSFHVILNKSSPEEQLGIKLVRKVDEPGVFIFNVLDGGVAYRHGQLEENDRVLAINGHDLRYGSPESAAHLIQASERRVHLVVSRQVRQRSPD

GRID2IP_2, A4D2P6 = biological target: GRID2IP_2, A4D2P6
Chain of GRID2IP_2, A4D2P6 (A4D2P6 272-370): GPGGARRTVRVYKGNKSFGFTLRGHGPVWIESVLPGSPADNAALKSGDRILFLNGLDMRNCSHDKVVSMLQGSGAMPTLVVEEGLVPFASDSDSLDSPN

MAGI3_2, Q5TCQ9 = biological target: MAGI3_2, Q5TCQ9
Chain of MAGI3_2, Q5TCQ9 (Q5TCQ9 398-503): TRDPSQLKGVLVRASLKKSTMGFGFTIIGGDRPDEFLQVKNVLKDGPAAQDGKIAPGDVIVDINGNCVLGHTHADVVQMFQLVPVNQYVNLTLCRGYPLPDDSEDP

DLG4_1, P78352 = biological target: DLG4_1, P78352
Chain of DLG4_1, P78352 (P78352 62-152): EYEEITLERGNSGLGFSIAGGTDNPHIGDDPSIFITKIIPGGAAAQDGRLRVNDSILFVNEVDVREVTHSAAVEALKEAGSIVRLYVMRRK

PDZD2_2, O15018 = biological target: T5, PDZD2_2, O15018
T5 sequence (O15018 329-429, limits assumed, looked up): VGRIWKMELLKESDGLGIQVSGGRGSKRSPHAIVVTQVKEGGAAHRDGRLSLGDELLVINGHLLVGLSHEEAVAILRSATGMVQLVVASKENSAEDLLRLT

DLG4_3, P78352 = biological target: DLG4_3, P78352
Chain of DLG4_3, P78352 (P78352 306-403): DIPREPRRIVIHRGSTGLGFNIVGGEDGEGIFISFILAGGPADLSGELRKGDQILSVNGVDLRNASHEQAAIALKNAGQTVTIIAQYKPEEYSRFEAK

DLG2_3, Q15700 = biological target: DLG2_3, Q15700
MAST2, Q6P0Q8 = biological target: MAST2, Q6P0Q8
Chain of MAST2, Q6P0Q8 (Q6P0Q8 1099-1202): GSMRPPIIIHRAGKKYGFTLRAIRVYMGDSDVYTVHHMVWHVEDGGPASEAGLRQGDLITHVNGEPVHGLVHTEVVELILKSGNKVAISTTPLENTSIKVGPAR

GRIP2_5, Q9C0E4 = biological target: GRIP2_5, Q9C0E4
Chain of GRIP2_5, Q9C0E4 (Q9C0E4 544-642): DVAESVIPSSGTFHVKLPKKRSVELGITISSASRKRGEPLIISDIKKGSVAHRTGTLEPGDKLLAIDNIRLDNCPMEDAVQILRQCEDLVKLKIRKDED

FRMPD4, Q14CM0 = biological target: FRMPD4, Q14CM0
Chain of FRMPD4, Q14CM0 (Q14CM0 67-160): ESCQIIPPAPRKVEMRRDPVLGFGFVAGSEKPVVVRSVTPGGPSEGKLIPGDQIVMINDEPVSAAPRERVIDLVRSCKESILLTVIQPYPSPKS

Inadl_6, Q8NI35 = biological target: Inadl_6, Q8NI35
Chain of Inadl_6, Q8NI35 (Q8NI35 1058-1167): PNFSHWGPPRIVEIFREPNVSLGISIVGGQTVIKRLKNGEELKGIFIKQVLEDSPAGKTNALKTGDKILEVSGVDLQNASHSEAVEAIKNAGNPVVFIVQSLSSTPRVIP

MAST1, Q9Y2H9 = biological target: MAST1, Q9Y2H9
Chain of MAST1, Q9Y2H9 (Q9Y2H9 962-1065): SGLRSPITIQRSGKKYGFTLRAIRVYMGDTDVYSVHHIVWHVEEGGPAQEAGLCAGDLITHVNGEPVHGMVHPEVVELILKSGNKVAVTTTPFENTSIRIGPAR

HTRA2, O43464 = biological target: HTRA2, O43464
Chain of HTRA2, O43464 (O43464 355-458): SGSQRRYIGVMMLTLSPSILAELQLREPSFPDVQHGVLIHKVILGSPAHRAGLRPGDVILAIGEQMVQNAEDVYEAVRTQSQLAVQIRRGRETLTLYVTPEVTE

ARHGAP21, Q5T5U3 = biological target: T6, ARHGAP21, Q5T5U3
T6 sequence (Q5T5U3 45-169, limits assumed, looked up): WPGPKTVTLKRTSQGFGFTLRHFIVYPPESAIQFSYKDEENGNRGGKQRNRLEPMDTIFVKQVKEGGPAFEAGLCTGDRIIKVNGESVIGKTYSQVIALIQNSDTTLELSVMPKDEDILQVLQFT

Chain of HTRA1, Q92743 (Q92743 360-477): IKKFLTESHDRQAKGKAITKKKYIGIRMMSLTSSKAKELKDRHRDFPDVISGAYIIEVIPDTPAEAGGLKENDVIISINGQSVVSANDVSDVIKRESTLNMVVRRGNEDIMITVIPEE

IDESKKEWLI [CNTNAP2, Q9UHC6]
pKd (HTRA1, Q92743): 5.31 | pKd (RADIL, Q96JH8): 3.76 | pKd (IL16_1, Q14005): below the threshold | pKd (DLG1_2, Q12959): below the threshold | pKd (GIPC2, Q8TF65): below the threshold | pKd (LNX1_3, Q8TBB1): below the threshold | pKd (MAGI2_4, Q86UL8): 3.47 | pKd (LAP2, Q96RT1): below the threshold | pKd (SHANK1, Q9Y566): below the threshold | pKd (GRASP, Q7Z6J2): below the threshold | pKd (PDLIM1, O00151): below the threshold | pKd (APBA2_2, Q99767): below the threshold | pKd (Inadl_10, Q8NI35): below the threshold | pKd (SNTB1, Q13884): below the threshold | pKd (IL16_4, Q14005): 3.79 | pKd (DLG4_2, P78352): below the threshold | pKd (GORASP2, Q9H8Y8): 3.94 | pKd (Inadl_1, Q8NI35): 3.93 | pKd (MAGI2_5, Q86UL8): below the threshold | pKd (LNX1_2, Q8TBB1): 3.66 | pKd (GRID2IP_2, A4D2P6): below the threshold | pKd (MAGI3_2, Q5TCQ9): 4.06 | pKd (DLG4_1, P78352): below the threshold | pKd (PDZD2_2, O15018): 4.54 | pKd (DLG4_3, P78352): below the threshold | pKd (DLG2_3, Q15700): 3.57 | pKd (MAST2, Q6P0Q8): below the threshold | pKd (GRIP2_5, Q9C0E4): below the threshold | pKd (FRMPD4, Q14CM0): below the threshold | pKd (Inadl_6, Q8NI35): below the threshold | pKd (MAST1, Q9Y2H9): below the threshold | pKd (HTRA2, O43464): 3.49 | pKd (ARHGAP21, Q5T5U3): below the threshold

SRSVVESDEL [MYPN, Q86TC9]
pKd (HTRA1, Q92743): 3.69 | pKd (RADIL, Q96JH8): below the threshold | pKd (IL16_1, Q14005): below the threshold | pKd (DLG1_2, Q12959): below the threshold | pKd (GIPC2, Q8TF65): below the threshold | pKd (LNX1_3, Q8TBB1): below the threshold | pKd (MAGI2_4, Q86UL8): below the threshold | pKd (LAP2, Q96RT1): below the threshold | pKd (SHANK1, Q9Y566): below the threshold | pKd (GRASP, Q7Z6J2): 4.14 | pKd (PDLIM1, O00151): 5.11 | pKd (APBA2_2, Q99767): below the threshold | pKd (Inadl_10, Q8NI35): below the threshold | pKd (SNTB1, Q13884): below the threshold | pKd (IL16_4, Q14005): below the threshold | pKd (DLG4_2, P78352): below the threshold | pKd (GORASP2, Q9H8Y8): below the threshold | pKd (Inadl_1, Q8NI35): below the threshold | pKd (MAGI2_5, Q86UL8): 3.95 | pKd (LNX1_2, Q8TBB1): below the threshold | pKd (GRID2IP_2, A4D2P6): below the threshold | pKd (MAGI3_2, Q5TCQ9): below the threshold | pKd (DLG4_1, P78352): below the threshold | pKd (PDZD2_2, O15018): below the threshold | pKd (DLG4_3, P78352): below the threshold | pKd (DLG2_3, Q15700): below the threshold | pKd (MAST2, Q6P0Q8): 4.46 | pKd (GRIP2_5, Q9C0E4): below the threshold | pKd (FRMPD4, Q14CM0): 3.72 | pKd (Inadl_6, Q8NI35): below the threshold | pKd (MAST1, Q9Y2H9): below the threshold | pKd (HTRA2, O43464): below the threshold | pKd (ARHGAP21, Q5T5U3): 3.51

KRPEMTSSSV [MUC3A, MUC3B, Q02505;Q9H195]
pKd (HTRA1, Q92743): below the threshold | pKd (RADIL, Q96JH8): below the threshold | pKd (GIPC2, Q8TF65): 3.73 | pKd (LNX1_3, Q8TBB1): below the threshold | pKd (MAGI2_4, Q86UL8): 1.79 | pKd (SHANK1, Q9Y566): 3.92 | pKd (PDLIM1, O00151): below the threshold | pKd (APBA2_2, Q99767): below the threshold | pKd (Inadl_10, Q8NI35): below the threshold | pKd (IL16_4, Q14005): 1.87 | pKd (DLG4_2, P78352): 4.15 | pKd (GORASP2, Q9H8Y8): below the threshold | pKd (Inadl_1, Q8NI35): below the threshold | pKd (LNX1_2, Q8TBB1): below the threshold | pKd (GRID2IP_2, A4D2P6): 3.73 | pKd (MAGI3_2, Q5TCQ9): 3.86 | pKd (DLG4_1, P78352): below the threshold | pKd (DLG4_3, P78352): 1.91 | pKd (DLG2_3, Q15700): 3.88 | pKd (MAST2, Q6P0Q8): 4.77 | pKd (GRIP2_5, Q9C0E4): below the threshold | pKd (FRMPD4, Q14CM0): below the threshold | pKd (Inadl_6, Q8NI35): below the threshold | pKd (MAST1, Q9Y2H9): 4.17 | pKd (HTRA2, O43464): below the threshold

DTKNYKQTSV [CRIPT, Q9P021]
pKd (HTRA1, Q92743): below the threshold | pKd (RADIL, Q96JH8): below the threshold | pKd (IL16_1, Q14005): below the threshold | pKd (DLG1_2, Q12959): 5.07 | pKd (GIPC2, Q8TF65): below the threshold | pKd (LNX1_3, Q8TBB1): below the threshold | pKd (MAGI2_4, Q86UL8): 3.87 | pKd (LAP2, Q96RT1): 4.32 | pKd (SHANK1, Q9Y566): below the threshold | pKd (GRASP, Q7Z6J2): 4.11 | pKd (PDLIM1, O00151): below the threshold | pKd (APBA2_2, Q99767): below the threshold | pKd (Inadl_10, Q8NI35): below the threshold | pKd (SNTB1, Q13884): 4.73 | pKd (IL16_4, Q14005): 3.71 | pKd (DLG4_2, P78352): 4.9 | pKd (GORASP2, Q9H8Y8): below the threshold | pKd (Inadl_1, Q8NI35): below the threshold | pKd (MAGI2_5, Q86UL8): 4.26 | pKd (LNX1_2, Q8TBB1): below the threshold | pKd (GRID2IP_2, A4D2P6): 4.39 | pKd (MAGI3_2, Q5TCQ9): 4.72 | pKd (DLG4_1, P78352): 4.37 | pKd (PDZD2_2, O15018): 4.76 | pKd (DLG4_3, P78352): 5.39 | pKd (DLG2_3, Q15700): 5.29 | pKd (MAST2, Q6P0Q8): 5.35 | pKd (GRIP2_5, Q9C0E4): below the threshold | pKd (FRMPD4, Q14CM0): below the threshold | pKd (Inadl_6, Q8NI35): below the threshold | pKd (MAST1, Q9Y2H9): 4.82 | pKd (HTRA2, O43464): below the threshold | pKd (ARHGAP21, Q5T5U3): 3.75

KSRVAFFEEL [NF2, P35240;P35240-1]
pKd (HTRA1, Q92743): 4.51 | pKd (RADIL, Q96JH8): 4.44 | pKd (LAP2, Q96RT1): below the threshold | pKd (SHANK1, Q9Y566): below the threshold | pKd (GRASP, Q7Z6J2): 4.08 | pKd (APBA2_2, Q99767): below the threshold | pKd (Inadl_10, Q8NI35): below the threshold | pKd (Inadl_1, Q8NI35): below the threshold | pKd (MAGI2_5, Q86UL8): below the threshold | pKd (LNX1_2, Q8TBB1): below the threshold | pKd (MAGI3_2, Q5TCQ9): below the threshold | pKd (DLG2_3, Q15700): below the threshold | pKd (MAST2, Q6P0Q8): 4.97 | pKd (FRMPD4, Q14CM0): 4.17 | pKd (MAST1, Q9Y2H9): 4.37 | pKd (ARHGAP21, Q5T5U3): below the threshold
